From patent US20200399332A1 (published 2020) come the findings set out here.

Data set [1] concerns the molecule itself. Put plainly: self-association; non-reducing SDS-PAGE, Oriole staining. The text has this:
To verify the possibility of the cysteine at amino acid number 168 and the cysteine at amino acid number 277 of wild-type human AIM shown in SEQ ID NO: 1 being involved in the multimerization of wild-type human rAIM, the inventors prepared mutant human rAIM in which the above-mentioned cysteines are substituted with different amino acids. First, to maintain the function of wild-type human rAIM, the amino acid to be used for substitution was studied. Since cysteine is hydrophilic (hydrogen bond can be formed), electric charge 0, and non-aromatic, serine, threonine, asparagine, glutamine were selected as 4 similar amino acids. […] The mutant human rAIM was prepared as follows. […] The purified and concentrated wild-type, 2CS, 3CS, 2/3CS human rAIM proteins, each 100 ng, were separated by SDS-PAGE under non-reducing conditions based on the difference in the molecular weights, Oriole staining was performed, and each human rAIM protein was detected.

Data set [2] concerns the molecule itself. Put plainly: self-association; non-reducing SDS-PAGE, Oriole staining, 100 ng.
Data set [3] concerns the molecule itself. Put plainly: self-association; non-reducing SDS-PAGE, CBB staining. The text has this:
The recovered culture supernatant was applied to an antibody column obtained by immobilizing mouse anti-human AIM monoclonal antibody (clone 7, autologously manufactured) on HiTrap NHS-activated HP column (GE Healthcare Life Sciences) to purify human rAIM. The human rAIM bound to the antibody column was eluted with 0.1 M glycine-HCl (pH2.5), and immediately neutralized with 1 M Tris-HCl (pH 8.5) to obtain human rAIM eluate. The buffer in the eluate was substituted with Dulbecco's Phosphate-Buffered Saline (DPBS) by using Amicon Ultra filter concentrators (Millipore) to perform concentration. The protein level of the human rAIM concentrate was quantified using Bcinchoninic acid (BCA) assay (Pierce), and the final concentration was adjusted to 2.0 mg/mL with DPBS. The wild-type human rAIM protein (1 μg) purified and concentrated as mentioned above was separated under non-reducing conditions by polyacrylamide gel electrophoresis (SDS-PAGE) based on the difference in the molecular weights, Coomassie Brilliant Blue (CBB) staining was performed, and wild-type human rAIM was detected.
The wild-type mouse rAIM was prepared as follows. […] The protein level of the mouse rAIM concentrate was quantified using BCA assay, and the final concentration was adjusted to 2.0 mg/mL with DPBS. […]

B1: mutant human AIM 2CS (cysteine 168 of SEQ ID NO: 1 substituted with serine) (other)
chain: VRLVGGLHRCEGRVEVEQKGQWGTVCDDGWDIKDVAVLCRELGCGAASGTPSGILYEPPAEKEQKVLIQSVSCTGTEDTLAQCEQEEVYDCSHDEDAGASCENPESSFSPVPEGVRLADGPGHCKGRVEVKHQNQWYTVCQTGWSLRAAKVVCRQLGCGRAVLTQKRSNKHAYGRKPIWLSQMSCSGREATLQDCPSGPWGKNTCNHDEDTWVECEDPFDLRLVGGDNLCSGRLEVLHKGVWGSVCDDNWGEKEDQVVCKQLGCGKSLSPSFRDRKCYGPGVGRIWLDNVRCSGEEQSLEQCQHRFWGFHDCTHQEDVAVICSG
notes: Expressed transiently in HEK293T cells; also called 2CS human rAIM
Turning to B1, the binding result in data set [1] is on record as “binds”.

B2: mutant human AIM 2/3CS (cysteines 168 and 277 of SEQ ID NO: 1 substituted with serine) (other)
chain: VRLVGGLHRCEGRVEVEQKGQWGTVCDDGWDIKDVAVLCRELGCGAASGTPSGILYEPPAEKEQKVLIQSVSCTGTEDTLAQCEQEEVYDCSHDEDAGASCENPESSFSPVPEGVRLADGPGHCKGRVEVKHQNQWYTVCQTGWSLRAAKVVCRQLGCGRAVLTQKRSNKHAYGRKPIWLSQMSCSGREATLQDCPSGPWGKNTCNHDEDTWVECEDPFDLRLVGGDNLCSGRLEVLHKGVWGSVCDDNWGEKEDQVVCKQLGCGKSLSPSFRDRKSYGPGVGRIWLDNVRCSGEEQSLEQCQHRFWGFHDCTHQEDVAVICSG
notes: Expressed transiently in HEK293T cells
As to B2, the binding result in data set [2] is “no binding”.

B3: wild-type human recombinant AIM (apoptosis inhibitor of macrophage, CD5L) (other)
chain: VRLVGGLHRCEGRVEVEQKGQWGTVCDDGWDIKDVAVLCRELGCGAASGTPSGILYEPPAEKEQKVLIQSVSCTGTEDTLAQCEQEEVYDCSHDEDAGASCENPESSFSPVPEGVRLADGPGHCKGRVEVKHQNQWYTVCQTGWSLRAAKVVCRQLGCGRAVLTQKRCNKHAYGRKPIWLSQMSCSGREATLQDCPSGPWGKNTCNHDEDTWVECEDPFDLRLVGGDNLCSGRLEVLHKGVWGSVCDDNWGEKEDQVVCKQLGCGKSLSPSFRDRKCYGPGVGRIWLDNVRCSGEEQSLEQCQHRFWGFHDCTHQEDVAVICSG
notes: Secreted from HEK293 / HEK293T cells; also called wild-type human rAIM; human rAIM
As to B3, the binding result in data set [3] was “binds”.

B4: mutant human AIM 3CS (cysteine 277 of SEQ ID NO: 1 substituted with serine) (other)
chain: VRLVGGLHRCEGRVEVEQKGQWGTVCDDGWDIKDVAVLCRELGCGAASGTPSGILYEPPAEKEQKVLIQSVSCTGTEDTLAQCEQEEVYDCSHDEDAGASCENPESSFSPVPEGVRLADGPGHCKGRVEVKHQNQWYTVCQTGWSLRAAKVVCRQLGCGRAVLTQKRCNKHAYGRKPIWLSQMSCSGREATLQDCPSGPWGKNTCNHDEDTWVECEDPFDLRLVGGDNLCSGRLEVLHKGVWGSVCDDNWGEKEDQVVCKQLGCGKSLSPSFRDRKSYGPGVGRIWLDNVRCSGEEQSLEQCQHRFWGFHDCTHQEDVAVICSG
notes: Expressed transiently in HEK293T cells; also called 3CS human rAIM
Turning to B4, in data set [1], the binding result is “binds”.

B5: wild-type mouse recombinant AIM (other)
chain: VQLVGGAHRCEGRVEVEHNGQWGTVCDDGWDRRDVAVVCRELNCGAVIQTPRGASYQPPASEQRVLIQGVDCNGTEDTLAQCELNYDVFDCSHEEDAGAQCENPDSDLLFIPEDVRLVDGPGHCQGRVEVLHQSQWSTVCKAGWNLQVSKVVCRQLGCGRALLTYGSCNKNTQGKGPIWMGKMSCSGQEANLRSCLLSRLENNCTHGEDTWMECEDPFELKLVGGDTPCSGRLEVLHKGSWGSVCDDNWGEKEDQVVCKQLGCGKSLHPSPKTRKIYGPGAGRIWLDDVNCSGKEQSLEFCRHRLWGYHDCTHKEDVEVICTDFDV
notes: Secreted from HEK293 / HEK293T cells; also called wild-type mouse rAIM; mouse rAIM
Take B5: in data set [3], the binding result is “binds”.

B6: mutant mouse AIM 2CS (cysteine 168 of SEQ ID NO: 2 substituted with serine) (other)
chain: VQLVGGAHRCEGRVEVEHNGQWGTVCDDGWDRRDVAVVCRELNCGAVIQTPRGASYQPPASEQRVLIQGVDCNGTEDTLAQCELNYDVFDCSHEEDAGAQCENPDSDLLFIPEDVRLVDGPGHCQGRVEVLHQSQWSTVCKAGWNLQVSKVVCRQLGCGRALLTYGSSNKNTQGKGPIWMGKMSCSGQEANLRSCLLSRLENNCTHGEDTWMECEDPFELKLVGGDTPCSGRLEVLHKGSWGSVCDDNWGEKEDQVVCKQLGCGKSLHPSPKTRKIYGPGAGRIWLDDVNCSGKEQSLEFCRHRLWGYHDCTHKEDVEVICTDFDV
notes: Expressed transiently in HEK293T cells; also called 2CS mouse rAIM
For the protein B6, the binding result in data set [2] is reported as “no binding”.
